The record followed here is the supplement of paper PMC12042874.

This data set can be described thus: amyloid nucleation score (Sup35N fusion, yeast selection) (log enrichment); library NNK1; higher = more nucleation; inactive = no reads after selection. The method, boiled down: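 The nucleation score equals the log enrichment of output over input reads from DiMSum, centred on the mode score of non-aggregating sequences. It was computed only for sequences with 100 or more input reads. The reads came from Illumina sequencing of plasmid inserts from psi-negative yeast expressing Sup35N fused to peptides of 20 random codons, induced with 100 μM copper sulfate for 24 hours and grown 7 days at 30°C without adenine and uracil.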

± gives the uncertainty stated by the source.

For SQHDRKYHYTIGYAQELDGL, the amyloid nucleation score was -0.235 ± 0.43.

With VIHYCYSCFSADQAGLLFTR, the amyloid nucleation score stood at 2.22 ± 0.14.

Turning to NKTVVLDHPHVCFPGSRSHL, the amyloid nucleation score result is “inactive”.

Substance MNCVLIVVPRMTLGNYRSSW gave an amyloid nucleation score of 5.21 ± 0.053.

SNNGCRIQRGVRNLAKGSTL: the amyloid nucleation score is -1.09 ± 0.9.

On to DTYKSPKHYRRL, for which the amyloid nucleation score is 0.608 ± 0.64.

As for WCNNYLSRLCRRVINLEAGL, the amyloid nucleation score is -1.13 ± 1.9.

LCSMTKTNVVRSECRVLTRR displayed an amyloid nucleation score of 1.86 ± 0.65.

For LRKTFF, the amyloid nucleation score was determined as 0.38 ± 0.33.

As to RARDIKWGCLFVCLTCMSTG, the amyloid nucleation score was found to be 3.76 ± 0.067.

QIYASKWPYEIEFKNFMRVA registered an amyloid nucleation score of 0.247 ± 0.42.

FLLNSPQNASYSPHRRLAFD had an amyloid nucleation score of -1.38 ± 0.92.

Turning to YYNLTSGPFKGGCWQRYF, the amyloid nucleation score was -0.205 ± 0.32.

The substance MSSRQVPGFLMIGSLFARCI showed an amyloid nucleation score of -0.639 ± 0.55.

For the substance DLLETKWIPSLVYKSFESLW, the amyloid nucleation score is -0.137 ± 0.63.

TWKAIWSEWYRTVPTGVLSN came in with an amyloid nucleation score of 0.461 ± 0.42.

With WSTHRQESFALYSKCMEVRR, the amyloid nucleation score was 0.186 ± 0.28.

As to IVWVDLNRIGSCAGLGINYY, the amyloid nucleation score came out at 0.18 ± 0.41.

The substance YYLIMP gave an amyloid nucleation score of 0.322 ± 0.41.

In turn, TYCKASGVR registered an amyloid nucleation score of 0.371 ± 0.75.

As for ETRANGVESFSTDLYMHFLD, the amyloid nucleation score worked out at 1.16 ± 0.36.

In the case of FLFLPVSVSYYEDDSGHVLC, the amyloid nucleation score entry was “inactive”.

The substance FRYGYLFKLSNVWIDDMLRR had an amyloid nucleation score of 1.96 ± 0.55.

For the substance GDSYVRHRMDP, the amyloid nucleation score result is “inactive”.

In turn, RWPRCYYNLGKCTDISLTWS had an amyloid nucleation score of 2.56 ± 0.18.

The substance TFVACDLKCPRCAWVGDFVM displayed an amyloid nucleation score of -0.912 ± 0.5.

Turning to DNSLYE, the amyloid nucleation score is -2.11 ± 2.7.

The substance VPGRWHSLCASYTLYA displayed an amyloid nucleation score of 0.469 ± 0.72.

Substance GDYYACGPTCGSRAAFPGVG displayed an amyloid nucleation score of -0.383 ± 0.59.

Take TCIVSWWYSQDGSWEMCLQR: the amyloid nucleation score result is “inactive”.

In turn, LWATNFCNTGFVYSLCIFSR yielded an amyloid nucleation score of 3.89 ± 0.12.

PQKLQGQIGCR registered an amyloid nucleation score of -0.549 ± 0.47.

In turn, LSLYESLSNPLVRSYRLFCR displayed an amyloid nucleation score of 0.517 ± 0.45.

Substance VVCRCTYFRLITGDSSL gave an amyloid nucleation score of -0.136 ± 0.8.

In the case of RCKELDCSPDSGITVTRSLI, the amyloid nucleation score turned out to be 1.12 ± 0.63.

The substance SDKEVVSLQEVHTQSEGSEG showed an amyloid nucleation score of 0.174 ± 0.27.

As to FVCWRYRCFLWELEEDGLVN, the amyloid nucleation score was determined as 0.627 ± 0.71.

As to VVWILMSAQNRMAPRFDVLT, the amyloid nucleation score was determined as 1.06 ± 0.51.

In turn, FLPWVLFFSQ showed an amyloid nucleation score of 0.816 ± 0.62.

The substance VHLCLCRCVLCAENGLWPFS registered an amyloid nucleation score of -0.761 ± 1.2.

On to LSLTRAMGIYFRWVLSRSFG, for which the amyloid nucleation score was -0.837 ± 2.4.

Substance LADGLTVRSKYYISVNSVGS had an amyloid nucleation score of -0.16 ± 0.4.

Turning to SANDFKMWGMVDKFGVMVLL, the amyloid nucleation score result is “inactive”.

In turn, YHNFNSV showed an amyloid nucleation score of 0.164 ± 0.34.

In turn, GRVDWMCEYLKLMRSVGWSR displayed an amyloid nucleation score of 0.545 ± 0.41.

FEYVIPRVTKIVRSTDRRGS: the amyloid nucleation score is -0.548 ± 1.7.

Consider FIHVVAFWRLSRDSY, for which the amyloid nucleation score came to 0.467 ± 0.55.

The substance SLDCLLYTLVDCRAFSFYKN returned an amyloid nucleation score of -0.359 ± 0.39.

Take SWRLK: the amyloid nucleation score was determined as 3.35 ± 0.073.

As to LCEMLF, the amyloid nucleation score is -0.202 ± 0.61.

With AGGAP, the amyloid nucleation score amounted to 0.501 ± 0.89.

Turning to RDPVLDVGLRCMWHNGGPFG, the amyloid nucleation score is -0.035 ± 1.4.

In the case of VTDCKLMCTVRPVSGSKTPV, the amyloid nucleation score is 0.139 ± 0.34.

The substance YNGGLRVMICLPECLLFSLI yielded an amyloid nucleation score of -0.246 ± 0.49.

Substance DASLQWYVDSLKFCWV displayed an amyloid nucleation score of 0.18 ± 0.36.

FIHAMAMCILGEHSI displayed an amyloid nucleation score of 0.686 ± 0.47.

With CGGYSTTCSLTWEILASNRL, the amyloid nucleation score was 0.675 ± 1.

Consider WHGVFKTRNRLCGTLPWFCA, for which the amyloid nucleation score was -0.143 ± 0.51.

In turn, ISPYPPRHLLQWVCKGE gave an amyloid nucleation score of 0.034 ± 0.68.

As for LGESTGIFFYGEIRPYLNGS, the amyloid nucleation score is -0.148 ± 0.64.

LYAYDWLHEGNSSHKSDLVM: the amyloid nucleation score is -0.791 ± 0.77.

Substance IRYCFCKIK displayed an amyloid nucleation score of 0.312 ± 1.1.

Turning to NCECVFIPMKEPGFYR, the amyloid nucleation score is -0.357 ± 0.63.

In the case of VSYKCSVRFLCIGRLRGVLF, the amyloid nucleation score was -0.197 ± 0.28.

Turning to SCGVLVSLFLYPKLNFGFYL, the amyloid nucleation score came to 0.419 ± 0.4.

On to QCDVS, for which the amyloid nucleation score entry is “inactive”.

HIMEIVESFTIETRMIKGCV displayed an amyloid nucleation score of 0.874 ± 0.53.

Substance SLVLSSFPLLIDNSSIESLV returned an amyloid nucleation score of -0.82 ± 0.42.

As for HKLFNALNPKKG, the amyloid nucleation score came out at 0.532 ± 1.2.

The substance LVFPWIISFCQRMWMLYQRY yielded an amyloid nucleation score of 0.499 ± 0.35.

Turning to RFGGD, the amyloid nucleation score was -0.388 ± 0.57.

On to VTILWTKSYMESDISFYIMW, for which the amyloid nucleation score was -1.03 ± 0.44.

Take VAADMEARYIFCYIINVDAR: the amyloid nucleation score was 4.98 ± 0.083.

WRMFGGRSEQSFIVPCRLLG: the amyloid nucleation score was 0.535 ± 1.2.

With SRTVTLFHHASNKSFHSSVS, the amyloid nucleation score was -0.074 ± 0.9.

Substance WWYYNRRWLVTCKSVYGLGM showed an amyloid nucleation score of -0.34 ± 0.37.

The substance ECCQDVIFFVAQINTCIEVT yielded an amyloid nucleation score of 0.221 ± 0.37.

In turn, EERDFKEPSRLVIIKLTVMF returned an amyloid nucleation score of 3.18 ± 0.12.

In the case of FLYRSYVNIGLGGANISNLV, the amyloid nucleation score stood at 4.3 ± 0.12.

The substance RLSSRVIRKNFDYQTFCHED came in with an amyloid nucleation score of 0.414 ± 0.34.

In the case of WSKCNVRMCWH, the amyloid nucleation score is -0.122 ± 0.64.

Substance EKWKKAAIWFFLSYWLAVWR returned an amyloid nucleation score of -0.301 ± 1.2.

As for SLVCNMFLSILRYFGFLNRS, the amyloid nucleation score result was “inactive”.

For IFLGIFSGILYRLSHRLCS, the amyloid nucleation score entry was “inactive”.

Turning to VFSDQQDHQHGWTYETSLSA, the amyloid nucleation score is 0.619 ± 0.7.

TKVDRLALSM registered an amyloid nucleation score of 0.658 ± 0.59.

In turn, YTPGSGVLRAGTADQLMRNF came in with an amyloid nucleation score of 0.522 ± 0.63.

In the case of KSQKG, the amyloid nucleation score worked out at 0.008 ± 0.36.

Take NLTANVLKVMSRHCNGFWIF: the amyloid nucleation score was 0.29 ± 0.46.

VCKVRRL came in with an amyloid nucleation score of 0.461 ± 0.63.

LMSLRDQRVLALN gave an amyloid nucleation score of -0.533 ± 0.44.

For FYTCCMSYVVWIMHVRRLAG, the amyloid nucleation score was 0.774 ± 0.56.

As to TIAGHYYLWS, the amyloid nucleation score was -0.291 ± 0.78.

In turn, FQAQWNLSTCPNAFCLFLIR displayed an amyloid nucleation score of 5.82 ± 0.059.

VMQFGVSGNAGC: the amyloid nucleation score worked out at 0.778 ± 0.55.

RMIIYNKYRCNSYLTNMGFG yielded an amyloid nucleation score of 2 ± 0.34.

Regarding SSYVMVCMKTYWCQEL, the amyloid nucleation score came to 2.45 ± 0.18.

Consider MRMRKNEHYE, for which the amyloid nucleation score was determined as 0.476 ± 0.46.

For the substance RIFLLVTHVACAMPLFHKTR, the amyloid nucleation score amounted to 0.83 ± 0.75.

For the substance CGFVEMTSRSKIHSLICWPG, the amyloid nucleation score turned out to be 1.53 ± 0.44.

LLWGATFCSSIQPDYNLSPV registered an amyloid nucleation score of -0.095 ± 0.44.

SDRKEA returned an amyloid nucleation score of -0.444 ± 0.69.

Substance MRQQGWYTESTFVMCQFTGG registered an amyloid nucleation score of 2.04 ± 0.088.

VVLAMTVRLWC registered an amyloid nucleation score of -0.667 ± 1.3.

In turn, SETFKRE yielded an amyloid nucleation score of -0.328 ± 0.66.

YSTSSEVEVDWLSVSKFVSI gave an amyloid nucleation score of 0.146 ± 0.27.

On to THKFLRTRTYFMSVRSVNYW, for which the amyloid nucleation score was determined as 1.19 ± 0.41.

Turning to TRQYIEVSVNLCYIVVDKKN, the amyloid nucleation score is -0.203 ± 0.39.

Turning to EYLSDDGI, the amyloid nucleation score stood at 0.131 ± 0.28.

WCRDLHKLYLY: the amyloid nucleation score is -0.2 ± 0.56.

VFQVTWGWSCMREVELSSGT came in with an amyloid nucleation score of 0.343 ± 0.67.

In the case of YCFSSSYVWHNRDGSINMFK, the amyloid nucleation score entry is “inactive”.

For the substance GTRQSDHYCVSTGLCV, the amyloid nucleation score stood at 0.352 ± 0.36.

GFCFCCRSGYARVIRFEART yielded an amyloid nucleation score of -0.17 ± 0.48.

The substance VVNGTMFINPCYVQGRCKEM had an amyloid nucleation score of 4.63 ± 0.067.

NLAGI returned an amyloid nucleation score of 0.716 ± 0.88.

In the case of PTTFVENIAWRRGSTSCLCG, the amyloid nucleation score entry was “inactive”.

Regarding KMFTGNSEFFCFLTTVKLDR, the amyloid nucleation score is -0.068 ± 0.61.

Turning to FWSYLSGLVGMYGQIVIKKA, the amyloid nucleation score came to 0.059 ± 0.79.

The substance WFAFIWNNRKCNFRKGTRDV registered an amyloid nucleation score of 6.11 ± 0.075.

Turning to SGQIQFIMIR, the amyloid nucleation score was found to be 0.727 ± 0.67.

As to WTLRYRSARLVACMINTDEM, the amyloid nucleation score came to 1.68 ± 0.46.

For the substance VTRVLLVKWPYNTVETCGGA, the amyloid nucleation score was -0.317 ± 0.33.

In turn, FCSLGKFGSRKCF displayed an amyloid nucleation score of 1.07 ± 0.61.

As for NSLKCVRSIVKRYSACHRV, the amyloid nucleation score is 0.387 ± 0.5.

With YFSDKVSSAFT, the amyloid nucleation score worked out at 0.318 ± 0.37.

FIYLENAS had an amyloid nucleation score of 0.532 ± 0.38.

Regarding IVRVLCSLLIQFKVNAY, the amyloid nucleation score result is “inactive”.

Substance VGLIDANTSSTSWCEGMRNS gave an amyloid nucleation score of -0.321 ± 0.47.

As to CMAGRNSFKLYMRRFNEENY, the amyloid nucleation score result was “inactive”.

FLLLTSMNPLEWTYGRFWGV: the amyloid nucleation score is -0.597 ± 0.72.

Take FIQNKVLVFQSNSTNDLLFP: the amyloid nucleation score was 6.071 ± 0.058.

LLGVSAF returned an amyloid nucleation score of -0.718 ± 0.68.

Substance SIYEVEGVTLGLEEHNMKGE gave an amyloid nucleation score of -0.43 ± 0.43.

LFSRVFSAANVIRHNFLFME: the amyloid nucleation score is 0.746 ± 0.9.

On to AGNCRDW, for which the amyloid nucleation score is -0.857 ± 0.66.

With KVQYLFCNYLIKSYMMVQCN, the amyloid nucleation score turned out to be 0.477 ± 0.39.

Take ISCCVKLRFGLCKSWNFMNQ: the amyloid nucleation score was -1.19 ± 1.4.

For the substance SLATEYCSPFNINRFHLVSI, the amyloid nucleation score worked out at 1.78 ± 0.29.
